Test [1] addresses T1, Human full-length (1–192) wild-type BAX (human, UniProt Q07812 1-192). The test is described as follows: FP; 0 uM EO.
Test [2] deals with T1, Human full-length (1–192) wild-type BAX. Briefly: FP; 1 uM EO (eltrombopag).
The target is the same in test [3]. Briefly: FP; 0.5 uM EO (eltrombopag).

Bridges are numbered along the chain shown (N, C = ends). [ ]: non-standard residue; d: D form. The star is where a group is joined. FITC = O=C1OC2(c3ccc(O)cc3Oc3cc(O)ccc32)c2ccc(NC(=S)*)cc21; S5 = C=CCCC[C@](C)(N)C(=O)O; Ahx = NCCCCCC(=O)O

As usually defined, the Kd is a measure of binding affinity in units of concentration. Read a low Kd as higher affinity.

T1 sequence (Q07812 whole entry): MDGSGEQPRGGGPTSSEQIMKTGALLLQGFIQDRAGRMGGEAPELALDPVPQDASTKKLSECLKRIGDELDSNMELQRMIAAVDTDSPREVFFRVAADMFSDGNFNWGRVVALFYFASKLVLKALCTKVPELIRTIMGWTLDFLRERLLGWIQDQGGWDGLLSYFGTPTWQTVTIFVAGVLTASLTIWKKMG

B1: FITC-BIM–SAHB, fluorescently-labeled hydrocarbon-stapled BIM–BH3 peptide (peptide)
chain: {FITC-Ahx}-EIWIAQELR[S5]IGD[S5]FNAYYA-NH2
modifications: staple 10-14
SMILES: CC[C@H](C)[C@H](NC(=O)[C@H](Cc1c[nH]c2ccccc12)NC(=O)[C@@H](NC(=O)[C@H](CCC(=O)O)NC(=O)CCCCCNC(=S)Nc1ccc2c(c1)C(=O)OC21c2ccc(O)cc2Oc2cc(O)ccc21)[C@@H](C)CC)C(=O)N[C@@H](C)C(=O)N[C@@H](CCC(N)=O)C(=O)N[C@@H](CCC(=O)O)C(=O)N[C@@H](CC(C)C)C(=O)N[C@@H](CCCNC(=N)N)C(=O)N[C@@]1(C)CCCC=CCCC[C@@](C)(C(=O)N[C@@H](Cc2ccccc2)C(=O)N[C@@H](CC(N)=O)C(=O)N[C@@H](C)C(=O)N[C@@H](Cc2ccc(O)cc2)C(=O)N[C@@H](Cc2ccc(O)cc2)C(=O)N[C@@H](C)C(N)=O)NC(=O)[C@H](CC(=O)O)NC(=O)CNC(=O)[C@H]([C@@H](C)CC)NC1=O
Consider B1, for which the Kd in test [1] is 0.11 µM; in test [2] it was greater than 2 µM; in test [3], 0.613 µM.

These data come from article PMC7892824 (2021).
